4 substances from US20100143254A1 can be followed below.

The target of this test is human FcRn (human) (UniProt P55899). Put plainly: SPR (BIAcore) steady state, immobilized IgG, human FcRn 16-2860 nM, pH 6.0. On the technique in general: In SPR one partner is held on a chip, and binding of the other changes the refractive index at the surface.
Sequence of human FcRn (human) (P55899 24-297 limits assumed, chain 1 of 2): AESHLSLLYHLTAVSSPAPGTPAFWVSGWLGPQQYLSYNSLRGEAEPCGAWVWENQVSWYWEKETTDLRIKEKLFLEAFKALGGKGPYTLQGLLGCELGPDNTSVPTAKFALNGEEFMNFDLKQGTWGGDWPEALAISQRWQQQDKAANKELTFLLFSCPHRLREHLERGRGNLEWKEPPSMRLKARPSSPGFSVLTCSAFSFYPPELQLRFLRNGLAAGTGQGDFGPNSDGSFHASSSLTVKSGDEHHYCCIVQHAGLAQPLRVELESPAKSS
Sequence of human FcRn (human) (P61769 21-119 limits assumed, chain 2 of 2, further chain): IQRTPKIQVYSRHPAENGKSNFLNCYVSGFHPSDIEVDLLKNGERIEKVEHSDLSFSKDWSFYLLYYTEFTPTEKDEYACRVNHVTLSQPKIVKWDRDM
A word on the Kd: it is the constant that tells how readily two partners part at equilibrium. A high value points to a looser complex. With MEDI-524 L309N (antibody), the Kd was determined as 15.9 µM. As for MEDI-524 G385S + Q386I (antibody), the figure is 3.03 µM; as for MEDI-524 R255V (antibody), 11.3 µM; as for MEDI-524 (wild type) (antibody), 2.68 µM.
